Experimental findings from PMC5343656, “The human mitochondrial transcription factor A is a versatile G-quadruplex binding protein” are described below.

As usually defined, the Kd is a measure of binding affinity in units of concentration.

Data set [1] addresses T1, TFAM (mature) (human, UniProt Q00059 43-246).
T1 sequence: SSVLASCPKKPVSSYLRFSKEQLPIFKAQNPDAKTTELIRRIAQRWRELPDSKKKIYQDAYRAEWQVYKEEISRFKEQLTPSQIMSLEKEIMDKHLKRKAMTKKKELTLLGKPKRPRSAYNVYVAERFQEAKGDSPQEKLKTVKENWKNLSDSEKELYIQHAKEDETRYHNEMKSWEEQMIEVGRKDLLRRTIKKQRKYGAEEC
In words: competition; vs 32P CSBII G4-DNA/RNA; EMSA: 25 mM Tris-HCl pH 7.0, 90 mM NaCl, 1 mM DTT, 3% glycerol, 0.01% Tween20, 30 min, room temperature; G4s mostly prefolded in 10 mM cacodylate pH 6.5, 100 mM KCl. To be noted: protein: recombinant; tags: C-terminal 6xHis; duplex. A general note: Mobility shift assays separate free from complexed probe on a gel.

Data set [2] addresses T1, TFAM (mature). In words: EMSA; EMSA: 25 mM Tris-HCl pH 7.0, 90 mM NaCl, 1 mM DTT, 3% glycerol, 0.01% Tween20, 30 min, room temperature; G4s mostly prefolded in 10 mM cacodylate pH 6.5, 100 mM KCl. The following applies: protein: recombinant, tags: C-terminal 6xHis.
Another data set deals with T2, TFAM (mature);TFAM HMG1 (human;human, UniProt Q00059;Q00059 43-246;43-125, |).
T2 sequence 1: T1 sequence
T2 sequence 2: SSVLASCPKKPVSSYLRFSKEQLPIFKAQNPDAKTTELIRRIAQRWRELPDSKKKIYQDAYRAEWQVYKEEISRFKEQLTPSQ
In words: EMSA; one TFAM and one HMG1 per G4; EMSA: 25 mM Tris-HCl pH 7.0, 90 mM NaCl, 1 mM DTT, 3% glycerol, 0.01% Tween20, 30 min, room temperature; G4s mostly prefolded in 10 mM cacodylate pH 6.5, 100 mM KCl. The following applies: protein: recombinant;recombinant; tags: C-terminal 6xHis;; label: 5' 32P or SybrGold; G4 parallel tetramer of 4 strands.

Data set [3] concerns the target T1, TFAM (mature). In words: intrinsic fluorescence quenching; EMSA: 25 mM Tris-HCl pH 7.0, 90 mM NaCl, 1 mM DTT, 3% glycerol, 0.01% Tween20, 30 min, room temperature; G4s mostly prefolded in 10 mM cacodylate pH 6.5, 100 mM KCl. To be noted: protein: recombinant, tags: C-terminal 6xHis.
Data set [4] concerns the target T1, TFAM (mature). In words: competition; vs 32P-dsLSP22; EMSA: 25 mM Tris-HCl pH 7.0, 90 mM NaCl, 1 mM DTT, 3% glycerol, 0.01% Tween20, 30 min, room temperature; G4s mostly prefolded in 10 mM cacodylate pH 6.5, 100 mM KCl. The following applies: protein: recombinant; tags: C-terminal 6xHis; label: 5' 32P or SybrGold; G4 parallel tetramer of 4 strands.
Data set [5] addresses T3, TFAM (mature);TFAM HMG1-L (human;human, UniProt Q00059;Q00059 43-246;43-152, |).
T3 sequence 1: T1 sequence
T3 sequence 2: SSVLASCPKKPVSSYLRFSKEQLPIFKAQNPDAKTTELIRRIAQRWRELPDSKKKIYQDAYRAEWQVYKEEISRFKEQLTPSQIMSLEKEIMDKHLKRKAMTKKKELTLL
The data set is described as follows: EMSA; one TFAM and one or two HMG1-L per G4; EMSA: 25 mM Tris-HCl pH 7.0, 90 mM NaCl, 1 mM DTT, 3% glycerol, 0.01% Tween20, 30 min, room temperature; G4s mostly prefolded in 10 mM cacodylate pH 6.5, 100 mM KCl. To be noted: protein: recombinant;recombinant; tags: C-terminal 6xHis;N-terminal His; label: 5' 32P or SybrGold; G4 parallel tetramer of 4 strands.

The target in data set [6] is T1, TFAM (mature). The data set is described as follows: EMSA; microscopic k1, two-site fit; EMSA: 25 mM Tris-HCl pH 7.0, 90 mM NaCl, 1 mM DTT, 3% glycerol, 0.01% Tween20, 30 min, room temperature; G4s mostly prefolded in 10 mM cacodylate pH 6.5, 100 mM KCl. To be noted: protein: recombinant; tags: C-terminal 6xHis; label: 5' 32P or SybrGold; G4 parallel tetramer of 4 strands.

The target in data set [7] is T1, TFAM (mature). In words: EMSA; microscopic k2, two-site fit; k12 0.58; EMSA: 25 mM Tris-HCl pH 7.0, 90 mM NaCl, 1 mM DTT, 3% glycerol, 0.01% Tween20, 30 min, room temperature; G4s mostly prefolded in 10 mM cacodylate pH 6.5, 100 mM KCl. The following applies: protein: recombinant; tags: C-terminal 6xHis; label: 5' 32P or SybrGold; G4 parallel tetramer of 4 strands.

Data set [8] addresses T1, TFAM (mature). The data set is described as follows: competition; homo-competition, 32P-G4-LSP22H; EMSA: 25 mM Tris-HCl pH 7.0, 90 mM NaCl, 1 mM DTT, 3% glycerol, 0.01% Tween20, 30 min, room temperature; G4s mostly prefolded in 10 mM cacodylate pH 6.5, 100 mM KCl. To be noted: protein: recombinant; tags: C-terminal 6xHis; label: 5' 32P or SybrGold; G4 parallel tetramer of 4 strands.

Data set [9] addresses T1, TFAM (mature). The data set is described as follows: EMSA; single shift; EMSA: 25 mM Tris-HCl pH 7.0, 90 mM NaCl, 1 mM DTT, 3% glycerol, 0.01% Tween20, 30 min, room temperature; G4s mostly prefolded in 10 mM cacodylate pH 6.5, 100 mM KCl. The following applies: protein: recombinant; tags: C-terminal 6xHis; G4 tetramer of 4 strands.
Data set [10] has as its target T1, TFAM (mature). The data set is described as follows: EMSA; similar to unmodified c-myc; EMSA: 25 mM Tris-HCl pH 7.0, 90 mM NaCl, 1 mM DTT, 3% glycerol, 0.01% Tween20, 30 min, room temperature; G4s mostly prefolded in 10 mM cacodylate pH 6.5, 100 mM KCl. To be noted: protein: recombinant; tags: C-terminal 6xHis; intramolecular G4.
Setting [11] is: label: 5' 32P or SybrGold, G4 parallel tetramer of 4 strands.
[12] abbreviates: label: 5' 32P, G4 tetramer of 4 strands.

B1: CSBII DNA/RNA heteroduplex competitor (DNA:RNA)
RNA: GAAGCGGGGGAGGGGGGGUUUGGUGGAAAU
DNA: ATTTCCACCAAACCCCCCCTCCCCCGCTTC
Consider B1, for which the binding signal with TFAM (mature) [1] was ~80 % free probe at 500-fold excess. For GTTAGTTGGGGGGTGACTGTTA (structured_DNA) [G4-LSP22H], the equilibrium dissociation constant (Kd) with TFAM (mature) [2] (setting [11]) worked out at 0.65 nM. For the same molecule, the binding result (with TFAM (mature);TFAM HMG1; in data set [5]) was “binds” throughout. Moreover, the figures for the binding signal in the data set with TFAM (mature) [3] (setting [11]), in the data set with TFAM (mature) [4] and in the data set with TFAM (mature) [8] were around 70 % Trp quenching, 1.6 fold excess for 50% displacement and 10 fold excess for 50% free probe, respectively. Moreover, the Ka in the data set with TFAM (mature) [6] was 0.61 ± 0.12 10^9 M^-1; with TFAM (mature) [7], 0.69 ± 0.25 10^9 M^-1. TCACAGGGGTGTGGGGACAGGGGTGTGGGGTGACT (structured_DNA) [ILPR G4 extended]: in the data set with TFAM (mature) [2] (intramolecular G4), the dissociation constant (Kd) is around 26 nM. Consider ACAGGGGTGTGGGGACAGGGGTGTGGGG (structured_DNA) [ILPR G4], for which, in the data set with TFAM (mature) [2] (label: 5' 32P, intramolecular G4, mostly antiparallel by CD), the Kd was found to be 118 nM. On to TGGGGGGT (structured_DNA) [(TG6T)4], for which the binding result with TFAM (mature) [2] (G4 tetramer of 4 strands) is “no binding”. TAGTTGGGGGGT (structured_DNA) [(TAGTTG6T)4]: the binding result with TFAM (mature) [9] is given as “binds”. Take AATAATGTGTTAGTTGGGGGGTG (structured_DNA) [G4-LSPas]: the dissociation constant (Kd) with TFAM (mature) [2] (setting [12]) worked out at 0.89 nM. In addition, in the data set with TFAM (mature) [3] (setting [12]), the binding signal was around 70 % Trp quenching.

Turning to GAAGCGGGGGAGGGGGGGUUUGGUGGAAAU (structured_RNA) [CSBII G4-RNA], the Kd with TFAM (mature) [2] (label: 5' 32P, G4 bimolecular) was found to be 1.25 nM.

B2: dsLSP22 (dsDNA)
DNA 1: GTTAGTTGGGGGGTGACTGTTA
DNA 2: TAACAGTCACCCCCCAACTAAC
For B2, the dissociation constant Kd with TFAM (mature) [2] (label: 5' 32P (EMSA), blunt) was determined as 9.2 nM. Also, in the data set with TFAM (mature) [3] (label: 5' 32P (EMSA), blunt), the binding signal is around 50 % Trp quenching.

B3: CSBII G4-DNA/RNA (mixed)
DNA: GAAGCGGGGGAGGGGGGGTTTGGTGGAAAT
RNA: B1 RNA
On to B3, for which the dissociation constant (Kd) with TFAM (mature) [2] (label: 5' 32P, hybrid G4 bimolecular) is 1.85 nM. On to GAAGCGGGGGAGGGGGGGTTTGGTGGAAAT (structured_DNA) [CSBII G4-DNA (EMSA)], for which, in the data set with TFAM (mature) [2] (label: 5' 32P, G4, purified bimolecular), the Kd stood at 3.65 nM.

Regarding TGGGGGGTGACT (structured_DNA) [(TG6TGACT)4], the dissociation constant Kd with TFAM (mature) [9] is 5 nM. As to TGAGGGTGGGTAGGGTGGGTAA (structured_DNA) [c-myc G4], the Kd in the data set with TFAM (mature) [2] (label: 5' 32P, intramolecular G4, parallel by CD) stood at 53 nM. As for TCTGAGGGTGGGTAGGGTGGGTAACT (structured_DNA) [c-myc G4 extended], in the data set with TFAM (mature) [10], the binding result was “binds”.
